From patent US20150203556A1 (UAB RESEARCH FOUNDATION, published 2015)

T1: IL-19 (human, UniProt Q9UHD0 25-177)
T1 construct: also called Interleukin-19; IL-19a
T1 sequence: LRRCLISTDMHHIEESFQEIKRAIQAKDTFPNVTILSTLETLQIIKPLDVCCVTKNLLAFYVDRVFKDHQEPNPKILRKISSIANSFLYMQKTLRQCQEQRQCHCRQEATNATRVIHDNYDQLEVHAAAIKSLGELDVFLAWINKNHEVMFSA

T2: IL-22 (Homo sapiens (Human), UniProt Q9GZX6 35-179, limits assumed)
T2 construct: also called IL-22 wt
T2 sequence: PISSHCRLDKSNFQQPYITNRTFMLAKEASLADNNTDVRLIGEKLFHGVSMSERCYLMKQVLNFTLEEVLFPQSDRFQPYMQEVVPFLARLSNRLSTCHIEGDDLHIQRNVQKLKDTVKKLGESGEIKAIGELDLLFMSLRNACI

T3: IL-20R1 triple mutant M3 (UniProt Q9UHF4 29-245)
T3 construct: range 29-245; also called IL-20R1 site 3 mutant
T3 sequence (looked up): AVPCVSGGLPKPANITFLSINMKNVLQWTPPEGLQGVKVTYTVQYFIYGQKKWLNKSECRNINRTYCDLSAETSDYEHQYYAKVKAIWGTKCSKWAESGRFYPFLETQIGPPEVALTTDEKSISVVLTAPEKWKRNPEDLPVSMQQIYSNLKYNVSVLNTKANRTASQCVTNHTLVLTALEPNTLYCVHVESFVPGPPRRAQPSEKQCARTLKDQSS

B1: IL22R1ddq/IL20R2-FCkh (Fc fusion)
chain 1: AHAPEDPSDLLQHVKFQSSNFENILTWDSGPEGTPDTVYSIEYKTYGERDWVAKKGCQRITRKSCDLTVETGDLQELYYARVTAVSAGGRSATKMTDRFSSLQHTTLKPPDVTCISKVRSIQMIVHPTPTPIRAGDGHRLTLEDIFHDLFYHLELQVNRTYQMHLGGKQREYEFFGLTPDTEFLGTIMICVPTWAKESAPYMCRVKTLPDRTWTYSGSGGGGPSVFIFPPKIKDVLMISLSPIVTCVVVDVSEDDPDVQISWFVNNVEVHTAQTQTHREDYNSTLRVVSALPIQHQDWMSGKEFKCKVNNKDLPAPIERTISKPKGSVRAPQVYVLPPPCEEMTKKQVTLYCMVTDFMPEDIYVEWTNNGKTELNYKNTEPVLDSDGSYFMYSKLRVEKKNWVERNSYSCSVVHEGLHNHHTTKSFSRTPGKGLEASGGLNDIFEAQKIEWHEGTGHHHHHH
chain 2: DEVAILPAPQQLSVLSTNMKHLLMWSPVIAPGETVYYSVEYQGEYESLYTSHIWIPSSWCSLTEGPECDVTDDITATVPYNLRVRATLGSQTSAWSILKHPFNRQSTILTRPGMEITKDGFHLVIELEDLGPQFEFLVAYWRREPGAEEHVKMVRSGGIPVHLETMEPGAAYCVKAQTFVKAIGRYSAFSQTECVEVQGEAGSGGGGPSVFIFPPKIKDVLMISLSPIVTCVVVDVSEDDPDVQISWFVNNVEVHTAQTQTHREDYNSTLRVVSALPIQHQDWMSGKEFKCKVNNKDLPAPIERTISKPKGSVRAPQVYVLPPPEEEMTKKQVTLTCMVTDFMPEDIYVEWTNNGKTELNYKNTEPVLDSDGSYFMTSKLRVEKKNWVERNSYSCSVVHEGLHNHHTTKSFGGCGTPASGGLNDIFEAQKIEWHE
notes: also called IL-22R1/IL-20R2-FCkh; soluble IL-22R1/IL-20R2 receptor heterodimer
B2: IL-20 (ligand)
chain: MLKTLNLGSCVIATNLQEIRNGFSEIRGSVQAKDGNIDIRILRRTESLQDTKPANRCCLLRHLLRLYLDRVFKNYQTPDHYTLRKISSLANSFLTIKKDLRLCHAHMTCHCGEEAMKKYSQILSHFEKLEPQAAVVKALGELDILLQWMEETE
notes: The crystal model holds residues 24-176; also called Interleukin-20; IL-20b

Tests used:
[1] = biological target: T1, IL-19; experiment: SPR, IL-19 as analyte over IL22R1ddq/IL20R2-FCkh as ligand
[2] = biological target: B2; experiment: SPR, IL-20 as analyte over IL22R1ddq/IL20R2-FCkh as ligand
[3] = biological target: T2, IL-22; experiment: SPR, IL-22 as analyte over IL22R1ddq/IL20R2-FCkh as ligand
[4] = biological target: B1; experiment: SPR with the IL-22R1/IL-20R2-FCkh heterodimer
[5] = biological target: T3, IL-20R1 triple mutant M3; experiment: SPR, IL-20 + M3 co-injected over an IL-20R2 chip
Method: FIGS. 9A-9D show the IL-20 site 3 interface is essential and distinct from other complexes. FIG. 9A is a ribbon diagram showing the site 3 interface between IL-20R1 and IL-20R2. FIG. 9B is a graph showing the importance of the site 3 interface in ternary complex formation. SPR sensograms obtained by injecting cytokines (IL-19 or IL-20, at 250 nM) and/or receptors (IL-20R1 or M3, at 425 nM), as labeled on the figure, over an IL-20R2 coupled biacore chip. Injection of IL-20+IL-20R1 results in a large response consistent with ternary complex formation. However, injection of IL-20+M3, an IL-20R1 site 3 mutant with S190^IL-20R1, W194^IL-20R1, and W207^IL-20R1 mutated to alanine drastically reduces binding due to disruption of ternary complex formation. Similar results are observed for complex formation by IL-19. FIG. 9C is a ribbon diagram of the superposition of the D2 domains of GHR site 1, IL-6R, and IL-20R1. The positions of the D2 domains of GHR site2, GP130, and IL-20R2 are shown, along with a schematic of the differences in their orientations. FIG. 9D is a ribbon diagram showing the putative model of the IL-22/IL-22R1/IL-10R2 complex based on the IL-20 ternary complex structure. […]

Kd [1] | Kd [2] | Kd [3] | kon [3] | fold difference in binding affinity against IL-19 [4] | binding result [5] | Binder
101 nM | 0.99 nM | 5.15 nM | ~957000 M⁻¹ s⁻¹ |  |  | B1
 |  |  |  | 100 fold | binds | B2
